From paper PMC4475061 (2015)

B1: CHMP1B WT fused to the Gal4 DNA-binding domain [human] / CHMP1A (positive-control partner of the Gal4-CHMP1B constructs in the two-hybrid assay) [human] (parent complex)
chain 1: MEKHLFNLKFAAKELSRSAKKCDKEEKAEKAKIKKAIQKGNMEVARIHAENAIRQKNQAVNFLRMSARVDAVAARVQTAVTMGKVTKSMAGVVKSMDATLKTMNLEKISALMDKFEHQFETLDVQTQQMEDTMSSTTTLTTPQNQVDMLLQEMADEAGLDLNMELPQGQTGSVGTSVASAEQDELSQRLARLRDQV
chain 2: MDDTLFQLKFTAKQLEKLAKKAEKDSKAEQAKVKKALLQKNVECARVYAENAIRKKNEGVNWLRMASRVDAVASKVQTAVTMKGVTKNMAQVTKALDKALSTMDLQKVSSVMDRFEQQVQNLDVHTSVMEDSMSSATTLTTPQEQVDSLIMQIAEENGLEVLDQLSQLPEGASAVGESSVRSQEDQLSRRLAALRN
B2: ULK3 fused to the VP16 activation domain [human] / CHMP1A fused to the Gal4 DNA-binding domain [human] (parent complex)
chain 1: MAGPGWGPPRLDGFILTERLGSGTYATVYKAYAKKDTREVVAIKCVAKKSLNKASVENLLTEIEILKGIRHPHIVQLKDFQWDSDNIYLIMEFCAGGDLSRFIHTRRILPEKVARVFMQQLASALQFLHERNISHLDLKPQNILLSSLEKPHLKLADFGFAQHMSPWDEKHVLRGSPLYMAPEMVCQRQYDARVDLWSMGVILYEALFGQPPFASRSFSELEEKIRSNRVIELPLRPLLSRDCRDLLQRLLERDPSRRISFQDFFAHPWVDLEHMPSGESLGRATALVVQAVKKDQEGDSAAALSLYCKALDFFVPALHYEVDAQRKEAIKAKVGQYVSRAEELKAIVSSSNQALLRQGTSARDLLREMARDKPRLLAALEVASAAMAKEEAAGGEQDALDLYQHSLGELLLLLAAEPPGRRRELLHTEVQNLMARAEYLKEQVKMRESRWEADTLDKEGLSESVRSSCTLQ
chain 2: B1 chain 2
B3: CHMP1B WT fused to the Gal4 DNA-binding domain [human] / ULK3 fused to the VP16 activation domain [human] (parent complex)
chain 1: B1 chain 1
chain 2: B2 chain 1
B4: ULK3 fused to the VP16 activation domain [human] / CHMP1B WT fused to the Gal4 DNA-binding domain [human] (parent complex)
chain 1: B2 chain 1
chain 2: B1 chain 1

Variants of: B1
Assay: yeast two-hybrid (β-galactosidase activity); read off a plot

response	Variant
~0.48	chain 1 D194A, chain 1 Q195A, chain 1 V196A
~0.54	chain 1 R191A, chain 1 L192A, chain 1 R193A
~0.77	chain 1 R188A, chain 1 L189A
~0.62	chain 1 L185A, chain 1 S186A, chain 1 Q187A

Variants of: B2
Assay: as above

response	Variant
~0.075	chain 1 V338D

Variants of: B3
Assay: as above

response	Variant
~0.028	chain 1 R191A, chain 1 L192A, chain 1 R193A

Variants of: B4
Assay: as above

response	Variant
~0.061	chain 1 V338D
~0.051	chain 1 M434D
